Columns and labels:
Assay in all cases: SPR (Biacore T100), antibody captured on protein A chip, receptor injected as analyte
FcγRIIIa-F158 = target: T1, FcγRIIIa-F158 (UniProt P08637 17-208, limits assumed)
T1 construct: also called FcγRIIIa-F158 allele

FcγRIIb = target: T2, FcγRIIb (UniProt P31994 46-217, limits assumed)
T2 construct: also called FcγIIb receptor
T2 sequence (looked up): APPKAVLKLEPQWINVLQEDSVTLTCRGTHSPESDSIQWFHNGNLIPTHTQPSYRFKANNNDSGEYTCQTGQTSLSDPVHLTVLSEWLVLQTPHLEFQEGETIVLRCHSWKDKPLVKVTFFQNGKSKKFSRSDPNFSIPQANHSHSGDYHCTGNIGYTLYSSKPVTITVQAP

FcγRIIIa-V158 = target: T3, FcγRIIIa-V158 (UniProt P08637 17-208, limits assumed)
T3 construct: It names the V158 allele but states no substitution against an entry; also called FcγRIIIa-V158 allele
T3 sequence (P08637 17-208 F176V limits assumed): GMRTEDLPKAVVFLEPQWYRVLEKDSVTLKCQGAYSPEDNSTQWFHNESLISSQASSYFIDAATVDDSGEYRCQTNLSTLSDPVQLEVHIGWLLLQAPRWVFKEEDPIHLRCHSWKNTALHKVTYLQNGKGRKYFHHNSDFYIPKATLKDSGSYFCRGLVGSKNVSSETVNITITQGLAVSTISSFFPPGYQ

T1 sequence (P08637 17-208 limits assumed): as the sequence (P08637 17-208 F176V limits assumed) above, with V160F counted along it

Kd (FcγRIIIa-F158): 1.04 µM
Kd (FcγRIIb): 2 µM
Kd (FcγRIIIa-V158): 0.252 µM
B1: commercial rituximab (rituxan, Genentech Inc.) (antibody)
chain 1: not shown
chain 2: QIVLSQSPAILSASPGEKVTMTCRASSSVSYIHWFQQKPGSSPKPWIYATNLASGVPVRFSGSGSGTSYSLTISRVEAEDAATYYCQQWTSNPPTFGGGTKLEIKRTVAAPSVFIFPPSDEQLKSGTASVVCLLNNFYPREAKVQWKVDNALQSGNSQESVTEQDSKDSTYSLSSTLTLSKADYEKHKVYACEVTHQGLSSPVTKSFNRGEC
